Patent US20200200749A1 (published 2020)
Like-named read-outs stand apart in the source and are kept apart here.

T1: EBOV GP (recombinant, full-length extracellular domain) (EBOV (Ebola Zaire), UniProt Q05320 33-650)
T1 chain: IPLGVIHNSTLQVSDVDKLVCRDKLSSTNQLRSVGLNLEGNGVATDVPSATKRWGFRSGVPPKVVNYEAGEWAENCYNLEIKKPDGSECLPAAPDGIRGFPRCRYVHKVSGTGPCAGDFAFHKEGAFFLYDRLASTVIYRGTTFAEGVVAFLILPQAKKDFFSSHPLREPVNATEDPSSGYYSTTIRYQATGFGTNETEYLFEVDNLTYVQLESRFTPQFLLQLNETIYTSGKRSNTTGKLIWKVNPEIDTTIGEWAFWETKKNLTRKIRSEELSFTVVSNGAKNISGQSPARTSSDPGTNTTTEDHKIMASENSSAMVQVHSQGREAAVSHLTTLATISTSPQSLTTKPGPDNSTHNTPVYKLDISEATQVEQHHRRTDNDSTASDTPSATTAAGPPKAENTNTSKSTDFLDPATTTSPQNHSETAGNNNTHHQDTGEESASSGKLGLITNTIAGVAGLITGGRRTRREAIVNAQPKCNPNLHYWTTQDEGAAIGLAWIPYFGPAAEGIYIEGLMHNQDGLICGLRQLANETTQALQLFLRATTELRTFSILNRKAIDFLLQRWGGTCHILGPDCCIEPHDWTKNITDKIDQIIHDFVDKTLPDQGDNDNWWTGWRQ

T2: SUDV GP (recombinant) (SUDV (Sudan ebolavirus), UniProt Q66814 33-650)
T2 chain: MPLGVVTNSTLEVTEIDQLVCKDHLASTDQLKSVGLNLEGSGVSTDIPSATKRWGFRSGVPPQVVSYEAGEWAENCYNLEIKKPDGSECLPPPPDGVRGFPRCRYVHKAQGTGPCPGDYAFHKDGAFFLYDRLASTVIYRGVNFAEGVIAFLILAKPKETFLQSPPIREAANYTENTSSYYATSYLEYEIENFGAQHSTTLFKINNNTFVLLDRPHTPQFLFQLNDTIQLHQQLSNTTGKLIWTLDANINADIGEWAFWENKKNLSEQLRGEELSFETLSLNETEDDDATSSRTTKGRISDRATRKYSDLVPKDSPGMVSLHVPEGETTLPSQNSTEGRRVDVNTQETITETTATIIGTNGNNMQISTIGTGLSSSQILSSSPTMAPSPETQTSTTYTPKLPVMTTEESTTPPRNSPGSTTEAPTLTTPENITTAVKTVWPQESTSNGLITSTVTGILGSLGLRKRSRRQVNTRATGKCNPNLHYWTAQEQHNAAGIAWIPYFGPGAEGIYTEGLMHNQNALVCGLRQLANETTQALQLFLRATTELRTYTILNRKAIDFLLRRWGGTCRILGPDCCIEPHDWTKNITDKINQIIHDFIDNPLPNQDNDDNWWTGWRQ

T3: EBOV sGP (EBOV (Ebola Zaire), UniProt P60170 33-324)
T3 chain: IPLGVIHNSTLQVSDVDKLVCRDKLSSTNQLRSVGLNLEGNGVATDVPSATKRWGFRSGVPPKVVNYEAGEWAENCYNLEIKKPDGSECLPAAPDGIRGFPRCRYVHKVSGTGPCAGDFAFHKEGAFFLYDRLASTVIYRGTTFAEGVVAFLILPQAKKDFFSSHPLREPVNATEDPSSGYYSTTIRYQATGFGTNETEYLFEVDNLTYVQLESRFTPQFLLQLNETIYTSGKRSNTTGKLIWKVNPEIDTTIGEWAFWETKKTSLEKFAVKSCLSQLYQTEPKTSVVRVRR

B1: 270 (antibody, V domains shown)
VH: QVQLQESGPGLVKPSQTLSLTCTVSGASISRGLYYWSWIRQPAGKGLEWIGRIYTSGSINYNPSLKSRVTISVDTSKNQFSLRLSSVIATDTAVYYCVRDAPWGDFLTGYFGFYGMDVWGQGTLVTVSS
VL: DIVMTQSPSSLSASVGDRVTITCRASQSINTYLNWYQQKPGKAPKFLIYAASSLHSGVPSRFSGSGSGTDFTLTINSLQPDDFATYYCQQSFTTPYTFGQGTKLEIK
B2: 87 (antibody, V domains shown)
VH: QVQLVQSGAEVKRPGASVKVSCKASGYTFTSYAISWVRQAPGQGLEWMGWISGNNGNTNYAQKLQGRLTMTTDTSTSTAYMELRSLRSDDTAVYYCARDADIVVVVGATGTYYYGMDVWGQGTLVTVSS
VL: DIVMTQSPSTLSASVGDRVTITCRASQSISSWLAWYQQKPGKAPKLLIYDASSLESGVPSRFSGSGSGTEFTLTISSLQPDDFATYYCQQYKSSLRTFGQGTQLEIK
B3: EBOV87 (antibody, V domains shown)
VH: QVQLVQSGAEVKRPGASVKVSCKASGYTFTSYAISWVRQAPGQGLEWMGWISGNNGNTNYAQKLQGRLTMTTDTSTSTAYMELRSLRSDDTAVYYCARDADIVVVVGATGTYYYGMDVWGQGTLVTVSS
VL: DIVMTQSPSTLSASVGDRVTITCRASQSISSWLAWYQQKPGKAPKLLIYDASSLESGVPSRFSGSGSGTEFTLTISSLQPDDFATYYCQQYKSSLRTFGQGTQLEIK
B4: 52 (antibody, V domains shown)
VH: QVQLQESGPGLVKPSETLSLNCTVSGGSISSYYWSWIRQPPGKGLEWIGYIYDSGRTKYNPSLKSRVTISLDTSKNQFSLKLSSVTAADTAVYYCASLGPFDKLWFGELLPGWFDPWGQGTLVTVSS
VL: EIVLTQSPATLSLSPGGRATLSCRASQSVHNYLAWYQQKSGQAPRLLIYDASNRATGIPARFSGSGSGTDFTLTISSLEPDDFAVYYCQHRSNWLTFGGGTKVEIK
B5: EBOV52 (antibody, V domains shown)
VH: QVQLQESGPGLVKPSETLSLNCTVSGGSISSYYWSWIRQPPGKGLEWIGYIYDSGRTKYNPSLKSRVTISLDTSKNQFSLKLSSVTAADTAVYYCASLGPFDKLWFGELLPGWFDPWGQGTLVTVSS
VL: EIVLTQSPATLSLSPGGRATLSCRASQSVHNYLAWYQQKSGQAPRLLIYDASNRATGIPARFSGSGSGTDFTLTISSLEPDDFAVYYCQHRSNWLTFGGGTKVEIK
B6: 324 (antibody, V domains shown)
VH: QVQLVQSGAEVKKPGASVKVSCKTSGYTFTSFEIHWVRQGSGQGLEWMGRMNPKSGDTVSAQKFQGRVTLTRDTSINAAYMELGSLSSEDTAVYYCARGPHVGEVVPGLMAGTYYFPLDVWGQGTLVTVSS
VL: DIQMTQSPSTLSASIGDRVTITCRASQSISRWLAWYQQKPGKAPKLLIYKVSDLQSGVPSRFSGSGYGTEFTLTIGSLQPDDLATYYCQQYDTYPWTFGQGTKLEIK
B7: EBOV62 (antibody, V domains shown)
VH: EVQLVESGGGLVQPGGSLRLSCAASGFTFSSYWMSWVRQAPGKGLEWVANIKQDGSAKYYVDSVKGRFTISRDNAKNSLYLQMNSLRAEDTAVYYCARDGLLGISDLLYPIYYFDYWGQGTLVTVSS
VL: DIVMTQSPSSLSASVGDRVTITCRASQNIGSYLNWYQQKPGKAPNLLMYAASSLQSGVPSRFSGSGSGTDFTLTITSLQPEDFATYYCQQSYSIPRTFGQGTQLEIK
B8: 62 (antibody, V domains shown)
VH: EVQLVESGGGLVQPGGSLRLSCAASGFTFSSYWMSWVRQAPGKGLEWVANIKQDGSAKYYVDSVKGRFTISRDNAKNSLYLQMNSLRAEDTAVYYCARDGLLGISDLLYPIYYFDYWGQGTLVTVSS
VL: DIVMTQSPSSLSASVGDRVTITCRASQNIGSYLNWYQQKPGKAPNLLMYAASSLQSGVPSRFSGSGSGTDFTLTITSLQPEDFATYYCQQSYSIPRTFGQGTQLEIK
B9: 289 (antibody, V domains shown)
VH: QVQLVQSGAEVKKPGSSVKVSCKASGATFGSDTVTWVRQAPGQGLEWMGGIIPFFGEANYAQRFQGRVTITADKSTNTAYMELSSLRSEDTAVYFCARQINEMATFGEIHYYTYMDVWGQGTLVTVSS
VL: GSELTQDPAVSVALGQTVRITCQGDSLRNYYASWYQQKPRQAPVLVFYGKNNRPSGIPDRFSGSSSGNTASLTISGAQAEDEADYYCNSRDSSSNHLVFGGGTKLTVLS
B10: EBOV63 (antibody, V domains shown)
VH: EVQLVESGGGLVKPGGSLRLSCAASGFTLNFYNMNWVRQAPGKGLEWVSSISSSSNYIYYADSVKGRFTISRDNARKSLYLQMNSLRAEDTAVYYCARDFVQLLIPQRDEWQGVHDYYGMDVWGQGTLVTVSS
VL: EIVLTQSPGTLSLSPGGRATLSCRASQSVSNSYLAWYQQKPGQAPRLLIYGASSRATGIPDRFSGSGSGTDFILTISRLEPEDFAVYYCQHYGSSQLTFGGGTKVEIK
B11: 63 (antibody, V domains shown)
VH: EVQLVESGGGLVKPGGSLRLSCAASGFTLNFYNMNWVRQAPGKGLEWVSSISSSSNYIYYADSVKGRFTISRDNARKSLYLQMNSLRAEDTAVYYCARDFVQLLIPQRDEWQGVHDYYGMDVWGQGTLVTVSS
VL: EIVLTQSPGTLSLSPGGRATLSCRASQSVSNSYLAWYQQKPGQAPRLLIYGASSRATGIPDRFSGSGSGTDFILTISRLEPEDFAVYYCQHYGSSQLTFGGGTKVEIK
B12: 49 (antibody, V domains shown)
VH: EVQLVESGGGLVQPGGSLRLSCAASGFTFSSYEINWVRQAPGRGLEWVSYISSSGRTIYYADSVKGRFTISRDNAKNSLYLQMNSLRAEDTAVYYCAREPYVDGILYGAGDSYFDYWGQGTLVTVSS
VL: DIQMTQSPSSLSASVGDRVTITCRASQSISNYLNWYQQKPGKAPKVLIYAASSLQSGVSSRFSGSGSGTDFTLTISSLQPEDFATYFCQQSYNTPPVTFGQGTRLEIK
B13: EBOV49 (antibody, V domains shown)
VH: EVQLVESGGGLVQPGGSLRLSCAASGFTFSSYEINWVRQAPGRGLEWVSYISSSGRTIYYADSVKGRFTISRDNAKNSLYLQMNSLRAEDTAVYYCAREPYVDGILYGAGDSYFDYWGQGTLVTVSS
VL: DIQMTQSPSSLSASVGDRVTITCRASQSISNYLNWYQQKPGKAPKVLIYAASSLQSGVSSRFSGSGSGTDFTLTISSLQPEDFATYFCQQSYNTPPVTFGQGTRLEIK
B14: 223 (antibody, V domains shown)
VH: QVQLQQWGAGLLKPSETLSLTCAVYGGSFTTTYWNWIRQPPGKGLEWIGEVNYSGNANYNPSLKGRVAISVDTSKNQFSLRLNSVTAADTAIYYCTSRIRSHIAYSWKGDVWGKGTTVTVSS
VL: EIVMTQSPGTLSLSPGERATLSCRASQSVPRNYIGWFQQKPGQAPRLLIYGASSRAAGFPDRFSGSGSGTDFTLTITRLEPEDFAMYYCHQYDRLPYTFGQGTKLEIK

Tests used:
Assay in all cases: ELISA
MARV GP [1] = target: MARV GP
BDBV sGP = BDBV sGP (BDBV (Bundibugyo ebolavirus))
BDBV GP [2] = target: T4, BDBV GP (BDBV (Bundibugyo ebolavirus))
MARV GP [3] = target: MARV GP; remark: listed apart in the source
BDBV GP [4] = target: T4, BDBV GP; remark: listed apart in the source
[5] = target: T1, EBOV GP (recombinant, full-length …)
SUDV GP (recombinant) = target: T2, SUDV GP (recombinant)
EBOV sGP = target: T3, EBOV sGP

Row | Binder | EC50 (MARV GP [3]) [µg/mL] | EC50 (BDBV GP [4]) [µg/mL] | EC50 [5] [µg/mL] | EC50 (SUDV GP (recombinant)) [µg/mL] | EC50 (EBOV sGP) [µg/mL] | further results
1 | B1 | – | – | – | – | – | EC50 (MARV GP [1]): > 10 µg/mL; EC50 (BDBV sGP): 0.025 µg/mL; EC50 (BDBV GP [2]): 0.154 µg/mL
2 | B2 | > 10 | 1.39 | – | – | – | –
3 | B3 | – | – | 0.724 | 0.629 | 0.051 | –
4 | B4 | > 10 | 1.84 | – | – | – | –
5 | B5 | – | – | 0.712 | > 10 | 0.082 | –
6 | B6 | – | – | – | – | – | EC50 (MARV GP [1]): > 10 µg/mL; EC50 (BDBV sGP): 0.012 µg/mL; EC50 (BDBV GP [2]): 0.053 µg/mL
7 | B7 | – | – | 0.228 | > 10 | 0.051 | –
8 | B8 | > 10 | 0.508 | – | – | – | –
9 | B9 | – | – | – | – | – | EC50 (MARV GP [1]): > 10 µg/mL; EC50 (BDBV sGP): 0.006 µg/mL; EC50 (BDBV GP [2]): 0.02 µg/mL
10 | B10 | – | – | 0.283 | > 10 | 0.038 | –
11 | B11 | > 10 | > 10 | – | – | – | –
12 | B12 | > 10 | > 10 | – | – | – | –
13 | B13 | – | – | 0.262 | > 10 | 0.061 | –
14 | B14 | – | – | – | – | – | EC50 (MARV GP [1]): > 10 µg/mL; EC50 (BDBV sGP): > 10 µg/mL; EC50 (BDBV GP [2]): 0.022 µg/mL
